Laboratory results taken from patent US20210292423A1 (published 2021).

Legend:
[1] = target: T1, human CD3ε/δ-Fc fusion protein (soluble recombinant CD3ε/δ complex) (human, UniProt P04234 22-105); assay: SPR Biacore, Fab
T1 construct: also called huCD3ε/δ; huCD3; not shown: hinge, CH2, CH3 of human IgG with tag
Experimental: (§1) Binding affinities of anti-CD3 binding Fabs or CODV-Fabs were measured by surface plasmon resonance (SPR) using a Biacore3000 instrument (GE Healthcare). Assay buffer was HBS-EP (BR-1001-88, GE Healthcare). Capture of CD3ε/δ-Fc fusion proteins was achieved using the human antibody capture kit (GE Healthcare). […] The CD3εδ-Fc fusions proteins were captured at 10 μl/min to approx. 70 RU to yield Rmax values of 30 RU. Binding kinetics with the anti-CD3 Fabs or CODV-Fabs was measured at 30 μl/min for 240 sec. and 600 sec. for association and dissociation phase, respectively. Twofold dilutions of Fabs from 3 to 400 nM in assay buffer were used. All Fab concentrations were run in duplicate together with duplicate buffer blanks for double referencing. Regeneration of the capture surface was performed with a 1 min injection of 3M MgCl2 solution at 30 μl/min. For data analysis the BIAevaluation software v.4.1 (GE Healthcare) was used. Data were fit globally using a 1:1 Langmuir model with mass transfer.

[2] = target: T1, human CD3ε/δ-Fc fusion protein (soluble …); assay: SPR, CD3-Fc captured, Fab 100 nM
Experimental: (§2) Binding was tested by SPR using a BIAcore3000 instrument run with HBS-EP buffer. Recombinant huCD3 proteins (ε/δ (PB01226), ε/γ (PB01225)) were captured at 10 μl/min via Fc-tag by anti-human Fc capture antibody MAB1302 (Millipore) immobilized on a CM5 sensor chip. Anti-CD3 Fabs were used as analytes at 100 nM with association and dissociation times of 240 sec and 300 sec, respectively at 30 μl/min. After each cycle the surfaces were regenerated by a 2 min pulse of 10 mM glycine buffer pH2.5.

[3] = target: recombinant huCD3ε/γ protein with Fc-tag (PB01225) (human, UniProt P07766 23-126; P09693 23-116); assay: SPR, CD3-Fc captured, Fab 100 nM
Experimental: as §2

[4] = target: T2, human CD3ε and CD3δ co-expressed on HEK293F cells (human, UniProt P07766 23-207; P04234 22-171); assay: flow cytometry, transfected HEK293F
T2 construct: also called huCD3ε/δ (transfected cells); huCD3e + huCD3d
Experimental: (§3) To analyze binding of antibodies to human CD3ε and human CD3δ expressed on the surface of cells, HEK293F cells were transfected with both constructs either alone or in co-transfection and signals were measured by flow cytometry. For transfection procedure FuGENE HD Transfection Reagent (Promega, #E2311) was used according to manufacturer's protocol.
(§4) Antibodies for staining were seeded at 1 μg in 50 μl per well Stain Buffer with FBS (BD Pharmingen) in 96-well U-bottom suspension culture plates (Greiner bio-one). Harvested transfected cells were resuspended in Stain Buffer with FBS and were added at 50 μl per well to the antibodies. Cells were incubated at 4° C. in the dark for 30 min and were washed twice. 0.5 μg secondary antibody Goat F(ab′)2 Anti-Human IgG-FITC (Beckman Coulter, #732598) or Goat F(ab′)2 Anti-Human kappa-PE (Southern Biotech, #206209), respectively, in combination with 0.5 μg 7-AAD per well was added in 100 μl Stain Buffer with FBS. Cells were incubated at 4° C. in the dark for 15 min and were washed twice. For measurement, cells were resuspended in 200 μl Stain Buffer with FBS. Cells were measured using the MACSQuant (Miltenyi Biotec) or LSRII (BD) flow cytometer, respectively. Further data analyses were performed using the FlowJo software (Tree Star, Inc.).

[5] = target: T3, human CD3ε expressed alone on HEK293F cells (human, UniProt P07766 23-207); assay: flow cytometry, transfected HEK293F
T3 construct: also called huCD3ε
Experimental: as §3, §4

[6] = target: T1, human CD3ε/δ-Fc fusion protein (soluble …); assay: SPR Biacore, CD3εδ-Fc captured, Fab analyte
Experimental: as §1

[7] = target: T4, human CD3 (TCR complex) on primary human T cells or Jurkat cells (human, UniProt P07766 23-207); assay: flow cytometry, primary human T cells
T4 construct: on the cells it stands in the whole TCR/CD3 complex; also called Jurkat E6-1 (expressing human TCR)
Experimental: The binding capacity of the CD3-Fabs was determined by flow cytometry. Primary human T cells were used as target cells. Therefore, peripheral blood mononuclear cells (PBMCs) were isolated from 200 ml peripheral blood of healthy donors treated with EDTA by Ficoll density centrifugation. 15 ml Histopaque (Sigma-Aldrich) was preloaded on a 50 ml Leucosep-Tube (Greiner bio-one). Blood was diluted with autoMACS Rinsing Buffer+1% BSA (Miltenyi Biotec) and loaded on the membrane of a total of ten prepared tubes. Tubes were centrifuged without brake for 10 min at 1000 xg. PBMCs were collected and washed with autoMACS Rinsing Buffer+1% BSA three times. Finally, PBMCs were resuspended in autoMACS Running Buffer (Miltenyi Biotec) for isolation of T lymphocytes by autoMACSpro technology using the Pan T Cell isolation Kit (Miltenyi Biotec) according to manufacturer's instructions. Purity of separated T cells was analyzed by MACSQuant flow cytometry using the human 7-Color Immunophenotyping Kit (Miltenyi Biotec). Isolated T cells were resuspended in Stain Buffer with FBS (BD Pharmingen) and 1E5 cells in 100 μl per well were seeded in 96-well U-bottom suspension culture plates (Greiner bio-one). Fab antibodies were diluted 1:3 in serial in PBS (Invitrogen) and 5 μl each were added to the cells at a final maximum concentration of 30000 ng/ml. The assay was incubated for 45 min at 4° C. Cells were washed twice with Stain Buffer with FBS and 1 μg secondary antibody Goat F(ab′)2 Anti-Human kappa-FITC (Beckman Coulter, #732621) per well was added in 100 μl Stain Buffer with FBS per well. The assay was incubated for 20 min at 4° C. and washed twice afterwards. Cells were resuspended in 150 μl Stain Buffer with FBS per well and were measured using the MACSQuant (Miltenyi Biotec) or LSRII (BD) flow cytometer. Further data analyses were performed using the FlowJo software (Tree Star, Inc.). Read out was percentage of cells positive for antibody binding. Cells treated only with the secondary but no primary antibody were used to set the gates. EC50 Curves were calculated by XLfit (Algorithm 205), EC50 values were calculated as inflection point of the slope (data are shown in table 6).

[8] = target: T5, human CD3δ expressed alone on HEK293F cells (human, UniProt P04234 22-171); assay: flow cytometry, HEK293F transfected with huCD3δ
T5 construct: entry includes the signal peptide; also called huCD3δ
Experimental: as §3
Cells were incubated on a shaker at 37° C. and 5% CO2. At day one to three after transfection cells were harvested and binding of antibodies was analyzed by flow cytometry.
as §4

T1 sequence (chain, as listed by the source mutant, chain 1 of 2): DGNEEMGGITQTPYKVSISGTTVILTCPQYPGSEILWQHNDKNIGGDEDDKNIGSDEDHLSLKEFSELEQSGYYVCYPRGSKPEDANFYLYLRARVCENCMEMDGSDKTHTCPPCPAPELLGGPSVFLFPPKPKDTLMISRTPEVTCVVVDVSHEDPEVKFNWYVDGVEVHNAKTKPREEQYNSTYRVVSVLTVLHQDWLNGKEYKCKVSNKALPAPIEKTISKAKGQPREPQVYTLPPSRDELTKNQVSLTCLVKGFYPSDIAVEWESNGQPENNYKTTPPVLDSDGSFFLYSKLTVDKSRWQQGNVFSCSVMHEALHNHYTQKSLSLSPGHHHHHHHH
T1 sequence (P04234 22-105, stated change not applied, chain 2 of 2): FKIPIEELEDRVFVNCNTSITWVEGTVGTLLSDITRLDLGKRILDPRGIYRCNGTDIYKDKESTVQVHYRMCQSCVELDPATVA
T5 sequence (P04234 22-171 limits assumed, stated change not applied): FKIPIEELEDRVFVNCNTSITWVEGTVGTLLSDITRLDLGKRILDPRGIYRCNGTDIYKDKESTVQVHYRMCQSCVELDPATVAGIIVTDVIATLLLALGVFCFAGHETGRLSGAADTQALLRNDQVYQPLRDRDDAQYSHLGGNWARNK

Row | Binder | Kd [1] | koff [1] | kon [1] | RU of Fab binding at 100 nM [2] | RU of Fab binding at 100 nM [3] | % antibody positive transfected cells [4] | % antibody positive transfected cells [5] | Kd [6] | koff [6] | kon [6] | EC50 [7] | binding result [8]
1 | 4E7-C9 Fab (Fab, V domains shown, also called BDX-4E7-C9) VH: EVQVVETGGSLVQPGKSLKLTCATSGFTFSNAWMHWVRQSPEKQLEWVAQIKDKSNNYATYYAESLKGRFTISRDDPKRSIYLQMNSLREEDTAIYYCRYVHYGIGYAMDAWGQGTSVTVSS VL: DVVMTQTPVSLSVSLGGQVSISCRSSQSLEHNNGNTYLSWYLQKPGQSPQPLIYKVSNRFSGISDRFSGSGSGTDFTLKISRVEPDDLGVYYCGQGTQYPFTFGPGTKLELKR | 17 nM | 0.0015 s⁻¹ | 89000 M⁻¹ s⁻¹ | 8 RU | 6 RU | 66.4% | 69% | 17 nM | 0.0016 s⁻¹ | 89000 M⁻¹ s⁻¹ | 6.2 nM | no binding (tested: <20% of binding of huCD3e + huCD3d)
2 | 20G6-F3 Fab (Fab, V domains shown, also called BDW-20G6-F3) VH: EVQLVETGGSLVQPGKSLKLTCATSGFTFTKAWMHWVRQSPEKQLEWVAQIKDKSNSYATYYAESVKGRFTISRDDSKSTIYLQMNSLKEEDTAIYYCRGVYYALSPFDYWGQGVMVTVSS VL: DVVMTQTPVSLSVSLGGQVSISCRSSQSLVHNNGNTYLSWYLQKPGQSPQSLIYKVSNRFSGFSDRFSGSGSGTDFTLKISRVDPDDLGVYYCGQGTQYPFTFGSGTKLEIKR | 8 nM | 0.00027 s⁻¹ | 35000 M⁻¹ s⁻¹ | 7 RU | 4 RU | 67.4% | 68.6% | 7.7 nM | 0.00027 s⁻¹ | 35000 M⁻¹ s⁻¹ | 14 nM | no binding (tested: <20% of binding of huCD3e + huCD3d)
3 | 10E6-G6 Fab (Fab, V domains shown) VH: EVQLVETGGGLVQSGKSLKLTCATSGFTVTNAWMHWVRQSPEKQLEWVAQIKAKSNNYETYYAESVKGRFTISRDDSKSSVYLQMNSLKEEDTAIYYCRGTQYGYNPFDYWGQGVMVTVSS VL: DVVMTQSPVSLSVSLGGQVSISCRSSQSLVHNNGYTYLSWYLQKPGQSPQVFIYKVSNRFSGISDRFSGSGSGTDFTLKISRIEPDDLGVYYCGQGTHYPFTFGSGTKLEIK |  |  |  | 11 RU | 8 RU | 93.3% | 96.3% | 14 nM | 0.002 s⁻¹ | 140000 M⁻¹ s⁻¹ | 4.7 nM | no binding (tested: <20% of binding of huCD3e + huCD3d)
4 | 12G3-E8 Fab (Fab, V domains shown) VH: EVRVVETGGSLVQPGKSLKLTCATSGFTFSLAWMHWVRQSPEKKLEWVAQIKDKANNYATYYAESVKGRFTISRDDSKRSVYLQMNRLKEEDTAIYYCRGVYYGFSMTPFDYWGQGVMVTVSS VL: DVAMTQTPVSLSVSLGGQVSISCRSSQSLVHNNGNTYLSWYLQKPGQSPQVLIYKVSNRFSGISDRFSGSGSGADFTLKISRVEPDDLGVYYCGQGTQYPFTFGAGTKLELK |  |  |  | 10 RU | 7 RU | 96.7% | 96.3% | 9.3 nM | 0.0011 s⁻¹ | 110000 M⁻¹ s⁻¹ | 4.4 nM | no binding (tested: <20% of binding of huCD3e + huCD3d)

Binders with a lower Kd [6], results first:

Row | Kd [1] | koff [1] | kon [1] | RU of Fab binding at 100 nM [2] | RU of Fab binding at 100 nM [3] | % antibody positive transfected cells [4] | % antibody positive transfected cells [5] | Kd [6] | koff [6] | kon [6] | EC50 [7] | Binder | binding result [8]
5 | 1 nM | 0.00018 s⁻¹ | 200000 M⁻¹ s⁻¹ | 13 RU | 7 RU | 70.4% | 70.6% | 0.89 nM | 0.00018 s⁻¹ | 200000 M⁻¹ s⁻¹ | 4.1 nM | 18F5-H10 Fab (Fab, V domains shown, also called BDX-18F5-H10) VH: EVQVVETGGSLVQPGKSLKLTCATSGFTFTNAWMHWVRRSPEKQLEWVAQIKDKSNNYATYYAESVKGRFTISRDDSKSSIYLQMNSLKEEDTAIYYCRYVHYRFAYALDAWGRGTSVSVSS VL: DVLMTQTPVSLSVSLGGQVSISCRSSQSLVHTNGNTYLSWYLQKPGQSPQLLIYKVSNRLSGISDRFSGSGSGTDFTLKISRVEPDDLGVYYCGQGTHYPFTFGAGTKLELKR | no binding (tested: <20% of binding of huCD3e + huCD3d)
6 |  |  |  | 11 RU | 8 RU | 95.3% | 96.7% | 4.3 nM | 0.00043 s⁻¹ | 99000 M⁻¹ s⁻¹ | 8.2 nM | 20E5-F10 Fab (Fab, V domains shown, also called 20E5-F10-huFab) VH: EVQLVETGENLVQPGKSLRLTCATSGFSFSNAWMHWIRQSPEKQLEWVAQIKDKSNNYATYYAESVNGRFTISRDDSKSSIYLHMDNLKEEDSAIYYCRYVHYGVRFFYTMDVWGQGTSVTVSS VL: DVVMTQTPVSLSVSLGDQVSISCRPSQSLVHNNGNTYLSWYLQKPGQSPHPLIYKVSNRFSGISDRFSGSGSGTDFTLKISRVEPDDLGVYYCGQGTQYPFTFGSGTKLEIK | no binding (tested: <20% of binding of huCD3e + huCD3d)
